Experimental data from the supplement of paper PMC10065799, “High-throughput profiling of sequence recognition by tyrosine kinases and SH2 domains using bacterial peptide display” (eLife, 2023).

Assays:
Grb2 SH2 = Grb2 SH2 (UniProt P62993); experiment: SH2 binding enrichment of the phosphorylated peptide, bacterial display (enrichment ratio); higher = better substrate or ligand; peptides without Tyr show the background
c-Src SH2 = experiment: as above
SHP2-C SH2 = experiment: as above
EPHB2 = EPHB2 (UniProt P29323); experiment: phosphorylation enrichment, bacterial display (enrichment ratio); higher = better substrate or ligand; peptides without Tyr show the background
EPHB1 = EPHB1 (UniProt P54762); experiment: as above
Sequence of EPHB1 (P54762 whole entry, looked up): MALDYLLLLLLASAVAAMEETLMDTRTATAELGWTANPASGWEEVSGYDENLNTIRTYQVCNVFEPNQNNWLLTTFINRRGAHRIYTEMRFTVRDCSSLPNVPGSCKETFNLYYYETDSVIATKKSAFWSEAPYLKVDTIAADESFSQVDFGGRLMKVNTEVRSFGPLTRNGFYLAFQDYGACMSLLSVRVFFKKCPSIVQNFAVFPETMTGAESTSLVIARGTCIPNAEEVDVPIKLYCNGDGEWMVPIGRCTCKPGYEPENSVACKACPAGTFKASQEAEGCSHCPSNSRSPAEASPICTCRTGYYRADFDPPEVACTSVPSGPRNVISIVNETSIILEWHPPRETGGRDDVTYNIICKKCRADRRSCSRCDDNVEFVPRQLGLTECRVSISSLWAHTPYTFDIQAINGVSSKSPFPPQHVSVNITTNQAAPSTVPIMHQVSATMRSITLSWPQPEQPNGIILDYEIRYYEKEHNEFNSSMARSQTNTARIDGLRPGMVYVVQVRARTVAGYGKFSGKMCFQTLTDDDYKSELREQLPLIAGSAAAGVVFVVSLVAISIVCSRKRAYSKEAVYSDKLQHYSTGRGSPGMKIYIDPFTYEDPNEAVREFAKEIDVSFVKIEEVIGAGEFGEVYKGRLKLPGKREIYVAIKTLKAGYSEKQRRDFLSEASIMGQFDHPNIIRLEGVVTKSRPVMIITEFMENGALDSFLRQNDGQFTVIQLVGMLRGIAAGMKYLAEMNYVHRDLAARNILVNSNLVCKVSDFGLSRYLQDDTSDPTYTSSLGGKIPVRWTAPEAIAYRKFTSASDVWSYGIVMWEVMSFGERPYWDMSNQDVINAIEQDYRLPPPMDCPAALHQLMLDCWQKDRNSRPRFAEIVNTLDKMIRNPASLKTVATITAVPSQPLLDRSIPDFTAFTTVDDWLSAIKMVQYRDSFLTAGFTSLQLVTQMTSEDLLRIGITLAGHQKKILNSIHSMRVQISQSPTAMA

FGFR3 = FGFR3 (UniProt P22607); experiment: as above
Sequence of FGFR3 (P22607 whole entry, looked up): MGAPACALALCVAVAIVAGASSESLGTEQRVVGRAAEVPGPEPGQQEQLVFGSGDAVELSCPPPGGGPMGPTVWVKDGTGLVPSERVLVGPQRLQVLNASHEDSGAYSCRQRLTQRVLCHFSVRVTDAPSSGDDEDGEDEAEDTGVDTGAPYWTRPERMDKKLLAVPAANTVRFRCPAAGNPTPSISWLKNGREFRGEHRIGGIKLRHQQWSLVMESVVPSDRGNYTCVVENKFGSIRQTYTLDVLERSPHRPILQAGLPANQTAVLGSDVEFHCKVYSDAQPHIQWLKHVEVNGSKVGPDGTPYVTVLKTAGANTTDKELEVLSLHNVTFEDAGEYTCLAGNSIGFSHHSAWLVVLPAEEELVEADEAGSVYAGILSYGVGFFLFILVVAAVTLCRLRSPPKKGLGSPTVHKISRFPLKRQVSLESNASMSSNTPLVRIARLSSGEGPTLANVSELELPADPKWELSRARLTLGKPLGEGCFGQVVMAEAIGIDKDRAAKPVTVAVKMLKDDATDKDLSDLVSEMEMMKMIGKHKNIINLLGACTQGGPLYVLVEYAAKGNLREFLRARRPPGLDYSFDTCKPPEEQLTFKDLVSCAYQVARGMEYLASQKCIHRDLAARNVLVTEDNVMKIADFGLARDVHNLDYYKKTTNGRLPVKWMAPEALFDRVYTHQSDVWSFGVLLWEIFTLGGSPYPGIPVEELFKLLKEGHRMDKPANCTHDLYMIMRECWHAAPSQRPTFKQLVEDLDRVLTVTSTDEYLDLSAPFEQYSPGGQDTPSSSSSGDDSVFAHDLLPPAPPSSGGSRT

MERTK = MERTK (UniProt Q12866); experiment: as above
c-Src = experiment: as above
c-Abl (mouse) = experiment: as above
Hck = Hck (UniProt P08631); experiment: as above
Sequence of Hck (P08631 whole entry, looked up): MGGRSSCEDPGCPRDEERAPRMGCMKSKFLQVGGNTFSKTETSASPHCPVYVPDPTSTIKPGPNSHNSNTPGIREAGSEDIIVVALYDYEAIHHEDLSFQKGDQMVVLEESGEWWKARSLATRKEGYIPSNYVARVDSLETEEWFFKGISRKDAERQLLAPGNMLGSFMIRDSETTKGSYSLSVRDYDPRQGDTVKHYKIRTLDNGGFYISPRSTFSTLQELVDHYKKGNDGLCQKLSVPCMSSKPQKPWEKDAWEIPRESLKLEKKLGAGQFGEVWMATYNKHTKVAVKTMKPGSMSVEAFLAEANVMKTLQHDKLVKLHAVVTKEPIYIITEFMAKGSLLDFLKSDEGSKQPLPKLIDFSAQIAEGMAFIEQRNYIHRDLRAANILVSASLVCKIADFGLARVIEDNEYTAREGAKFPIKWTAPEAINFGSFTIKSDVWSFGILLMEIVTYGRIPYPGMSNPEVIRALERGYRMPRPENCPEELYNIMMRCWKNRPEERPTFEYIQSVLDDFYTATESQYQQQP

Jak2 = Jak2 (UniProt O60674); experiment: as above
Sequence of Jak2 (O60674 whole entry, looked up): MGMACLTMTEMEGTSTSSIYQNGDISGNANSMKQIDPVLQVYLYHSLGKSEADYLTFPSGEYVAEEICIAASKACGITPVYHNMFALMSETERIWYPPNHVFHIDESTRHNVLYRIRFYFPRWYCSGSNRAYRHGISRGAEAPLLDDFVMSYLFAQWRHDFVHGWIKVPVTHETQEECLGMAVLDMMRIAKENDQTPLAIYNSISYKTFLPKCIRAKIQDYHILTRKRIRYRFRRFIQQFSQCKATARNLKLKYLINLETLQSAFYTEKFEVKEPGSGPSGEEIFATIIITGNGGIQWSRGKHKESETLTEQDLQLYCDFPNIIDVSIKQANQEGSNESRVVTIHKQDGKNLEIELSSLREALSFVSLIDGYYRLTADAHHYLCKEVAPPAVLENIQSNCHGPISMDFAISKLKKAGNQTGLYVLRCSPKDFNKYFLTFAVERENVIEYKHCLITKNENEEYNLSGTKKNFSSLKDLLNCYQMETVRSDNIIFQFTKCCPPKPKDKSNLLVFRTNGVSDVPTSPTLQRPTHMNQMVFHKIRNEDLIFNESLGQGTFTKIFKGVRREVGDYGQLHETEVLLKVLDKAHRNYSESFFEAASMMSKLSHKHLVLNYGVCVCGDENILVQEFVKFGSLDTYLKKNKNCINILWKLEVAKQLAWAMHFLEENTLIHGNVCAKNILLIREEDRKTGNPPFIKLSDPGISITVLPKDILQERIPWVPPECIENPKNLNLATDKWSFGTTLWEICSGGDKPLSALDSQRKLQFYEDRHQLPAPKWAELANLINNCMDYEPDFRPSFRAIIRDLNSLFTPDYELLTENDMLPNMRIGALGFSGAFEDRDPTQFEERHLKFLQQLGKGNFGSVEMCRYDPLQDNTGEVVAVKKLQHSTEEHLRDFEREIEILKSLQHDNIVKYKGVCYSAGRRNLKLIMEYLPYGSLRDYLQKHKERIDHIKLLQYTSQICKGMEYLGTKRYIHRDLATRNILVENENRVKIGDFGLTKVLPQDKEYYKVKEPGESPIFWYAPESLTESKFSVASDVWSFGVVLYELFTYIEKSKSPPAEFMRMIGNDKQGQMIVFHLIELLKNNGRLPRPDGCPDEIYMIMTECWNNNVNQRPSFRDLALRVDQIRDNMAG

Fes = Fes (UniProt P07332); experiment: as above
Fyn = Fyn (UniProt P06241); experiment: as above
Sequence of Fyn (P06241 whole entry, looked up): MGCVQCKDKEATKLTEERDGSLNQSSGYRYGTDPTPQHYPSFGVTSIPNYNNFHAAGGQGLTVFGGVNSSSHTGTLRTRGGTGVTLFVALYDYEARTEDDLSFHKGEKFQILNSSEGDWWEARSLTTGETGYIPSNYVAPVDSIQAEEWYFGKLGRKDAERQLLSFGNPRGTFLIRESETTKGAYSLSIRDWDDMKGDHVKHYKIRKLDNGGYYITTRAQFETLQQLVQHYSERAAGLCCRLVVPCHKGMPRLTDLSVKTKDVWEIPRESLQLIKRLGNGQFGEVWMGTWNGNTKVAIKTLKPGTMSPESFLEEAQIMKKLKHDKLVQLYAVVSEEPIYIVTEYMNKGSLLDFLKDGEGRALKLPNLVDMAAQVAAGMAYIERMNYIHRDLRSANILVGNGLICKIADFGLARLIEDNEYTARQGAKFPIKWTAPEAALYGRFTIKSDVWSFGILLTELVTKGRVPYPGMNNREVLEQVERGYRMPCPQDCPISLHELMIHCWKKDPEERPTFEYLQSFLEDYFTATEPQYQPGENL

Fer (mouse) = experiment: as above
AncSZ = experiment: as above
FGFR1 = FGFR1 (UniProt P11362); experiment: as above
Sequence of FGFR1 (P11362 whole entry, looked up, the tested form may be a part): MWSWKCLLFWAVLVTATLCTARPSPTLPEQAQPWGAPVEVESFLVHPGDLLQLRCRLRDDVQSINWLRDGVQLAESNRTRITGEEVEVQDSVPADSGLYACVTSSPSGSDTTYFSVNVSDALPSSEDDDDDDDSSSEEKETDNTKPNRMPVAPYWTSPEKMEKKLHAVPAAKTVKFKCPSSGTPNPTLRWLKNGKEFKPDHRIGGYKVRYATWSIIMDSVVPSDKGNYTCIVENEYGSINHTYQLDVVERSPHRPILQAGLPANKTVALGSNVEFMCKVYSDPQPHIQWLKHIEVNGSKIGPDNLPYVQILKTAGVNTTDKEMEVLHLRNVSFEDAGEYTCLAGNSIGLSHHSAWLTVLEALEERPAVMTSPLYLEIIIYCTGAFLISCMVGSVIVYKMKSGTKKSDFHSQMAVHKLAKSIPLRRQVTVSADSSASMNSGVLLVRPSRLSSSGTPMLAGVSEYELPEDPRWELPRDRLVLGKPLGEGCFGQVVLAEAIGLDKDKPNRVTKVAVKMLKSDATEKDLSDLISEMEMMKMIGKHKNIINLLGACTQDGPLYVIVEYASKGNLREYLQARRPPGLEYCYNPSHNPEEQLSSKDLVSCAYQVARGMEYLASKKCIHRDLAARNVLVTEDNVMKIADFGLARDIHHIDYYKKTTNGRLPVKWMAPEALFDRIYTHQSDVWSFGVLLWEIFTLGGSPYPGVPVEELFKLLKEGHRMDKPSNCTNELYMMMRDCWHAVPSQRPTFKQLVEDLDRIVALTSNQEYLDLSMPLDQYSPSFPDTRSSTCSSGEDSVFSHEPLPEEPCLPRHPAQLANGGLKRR
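Throughout, for SH2 binding enrichment of the phosphorylated peptide, bacterial display: peptide library displayed on the E. coli surface as eCPX fusions, selected cells deep-sequenced, score is each peptide's frequency after selection divided by its frequency in the input.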
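Throughout, for phosphorylation enrichment, bacterial display: 11-residue human phosphosite peptides and single-mutation variants displayed on the E. coli surface, counted by deep sequencing, each peptide's frequency after selection divided by its frequency in the unselected input library; frequency after pTyr selection over input frequency; kinase dosed for 20-30% of maximal phosphorylation in three min.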

Sequence of Grb2 SH2 (P62993 whole entry, looked up): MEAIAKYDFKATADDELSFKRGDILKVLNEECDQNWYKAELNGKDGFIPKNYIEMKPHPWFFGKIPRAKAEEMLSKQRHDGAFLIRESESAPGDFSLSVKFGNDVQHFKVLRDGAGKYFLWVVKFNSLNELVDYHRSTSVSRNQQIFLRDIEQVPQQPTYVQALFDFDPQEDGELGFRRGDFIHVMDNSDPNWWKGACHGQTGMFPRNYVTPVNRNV

| Sequence | SH2 binding enrichment (Grb2 SH2) | SH2 binding enrichment (c-Src SH2) | SH2 binding enrichment (SHP2-C SH2) | phosphorylation enrichment (EPHB2) | phosphorylation enrichment (EPHB1) | phosphorylation enrichment (FGFR3) | phosphorylation enrichment (MERTK) | phosphorylation enrichment (c-Src) | phosphorylation enrichment (c-Abl (mouse)) | phosphorylation enrichment (Hck) | phosphorylation enrichment (Jak2) | phosphorylation enrichment (Fes) | phosphorylation enrichment (Fyn) | phosphorylation enrichment (Fer (mouse)) | phosphorylation enrichment (AncSZ) | phosphorylation enrichment (FGFR1) |
| --- | --- | --- | --- | --- | --- | --- | --- | --- | --- | --- | --- | --- | --- | --- | --- | --- |
| EKMWSYMKSAE [GRIA3_Y705] | 0.972 | 0.394 | 0.86 | 0.4 | 0.511 | 0.75 | 0.381 | 0.467 | 0.547 | 0.365 | 0.719 | 0.949 | 0.802 | 0.398 | 0.939 | 0.411 |
| EKSREYHRLYE [PIK3R1_Y463_D464H] | 0.647 | 6.12 | 0.589 | 0.435 | 0.428 | 0.466 | 0.525 | 0.519 | 0.52 | 0.539 | 0.637 | 0.616 | 0.498 | 0.432 | 0.538 | 0.455 |
| ELPQTYCVSGP [DYSF_Y1684_G1679E] | 0.838 | 0.47 | 0.881 | 0.532 | 0.533 | 0.594 | 0.447 | 0.641 | 0.633 | 0.435 | 0.826 | 0.816 | 0.469 | 0.515 | 0.791 | 0.417 |
| ENAGFYFRISA | 0.729 | 0.669 | 0.566 | 0.73 | 0.587 | 0.844 | 0.36 | 0.492 | 1 | 0.492 | 1.55 | 1.42 | 0.44 | 0.674 | 1.32 | 0.467 |
| ENAGYYFRVSA | 0.788 | 0.415 | 0.976 | 0.665 | 0.568 | 0.719 | 0.347 | 0.322 | 0.775 | 0.476 | 1.21 | 1.26 | 0.435 | 0.456 | 1.26 | 0.508 |
| ENELTYFCFKK [CD59_Y86_C89Y_YF] | 0.746 | 0.414 | 0.6 | 0.667 | 0.796 | 1.29 | 1.16 | 4.58 | 3.38 | 3.63 | 2.43 | 1.57 | 4.33 | 0.541 | 1.71 | 1.06 |
| ENRKFYMDLKE [PURA_Y156_YF] | 0.841 | 0.506 | 0.558 | 0.691 | 0.492 | 0.738 | 0.432 | 0.375 | 0.557 | 0.469 | 0.963 | 0.989 | 0.408 | 0.487 | 0.917 | 0.503 |
| EPSLVYMVTKI [CPS1_Y768_D767V] | 0.769 | 0.482 | 0.531 | 0.534 | 0.575 | 0.741 | 0.454 | 1.45 | 0.89 | 1.26 | 1.04 | 1.16 | 0.808 | 1.7 | 1.16 | 0.543 |
